The target of the assay is Canine IL-31RA ECD-10His (canine). The assay is described as follows: ELISA, IL-31RA coated at 1 ug/mL, biotinylated IL-31 titrated, HRP-streptavidin.
Chain of Canine IL-31RA ECD-10His (canine) (chain, as listed by the source limits assumed): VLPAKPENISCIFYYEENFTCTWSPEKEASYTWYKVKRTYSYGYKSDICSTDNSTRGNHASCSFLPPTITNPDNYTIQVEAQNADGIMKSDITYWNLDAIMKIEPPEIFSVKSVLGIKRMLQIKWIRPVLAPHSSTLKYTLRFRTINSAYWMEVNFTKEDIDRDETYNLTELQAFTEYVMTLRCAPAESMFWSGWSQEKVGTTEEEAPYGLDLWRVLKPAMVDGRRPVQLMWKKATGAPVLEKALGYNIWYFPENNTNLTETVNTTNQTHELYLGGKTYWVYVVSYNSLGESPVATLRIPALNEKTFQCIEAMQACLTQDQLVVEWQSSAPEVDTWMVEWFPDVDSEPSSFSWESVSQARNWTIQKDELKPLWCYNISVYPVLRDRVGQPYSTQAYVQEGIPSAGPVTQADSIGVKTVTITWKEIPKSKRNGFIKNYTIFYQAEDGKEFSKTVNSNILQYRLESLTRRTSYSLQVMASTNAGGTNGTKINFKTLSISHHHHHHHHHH

Consider canine IL-31 (ligand), for which the half-maximal effective concentration (EC50) is 0.55 ng/mL.

(Values after patent publication US20250340653A1.)
